Assay results from the supplement of paper PMC10065799, “High-throughput profiling of sequence recognition by tyrosine kinases and SH2 domains using bacterial peptide display” (eLife, 2023).

Tests used:
Fer (mouse) = experiment: phosphorylation enrichment, bacterial display (enrichment ratio); higher = better substrate or ligand; peptides without Tyr show the background
EPHB2 = EPHB2 (UniProt P29323); experiment: as above
AncSZ = experiment: as above
c-Src = experiment: as above
Hck = Hck (UniProt P08631); experiment: as above
Chain of Hck (P08631 whole entry, looked up): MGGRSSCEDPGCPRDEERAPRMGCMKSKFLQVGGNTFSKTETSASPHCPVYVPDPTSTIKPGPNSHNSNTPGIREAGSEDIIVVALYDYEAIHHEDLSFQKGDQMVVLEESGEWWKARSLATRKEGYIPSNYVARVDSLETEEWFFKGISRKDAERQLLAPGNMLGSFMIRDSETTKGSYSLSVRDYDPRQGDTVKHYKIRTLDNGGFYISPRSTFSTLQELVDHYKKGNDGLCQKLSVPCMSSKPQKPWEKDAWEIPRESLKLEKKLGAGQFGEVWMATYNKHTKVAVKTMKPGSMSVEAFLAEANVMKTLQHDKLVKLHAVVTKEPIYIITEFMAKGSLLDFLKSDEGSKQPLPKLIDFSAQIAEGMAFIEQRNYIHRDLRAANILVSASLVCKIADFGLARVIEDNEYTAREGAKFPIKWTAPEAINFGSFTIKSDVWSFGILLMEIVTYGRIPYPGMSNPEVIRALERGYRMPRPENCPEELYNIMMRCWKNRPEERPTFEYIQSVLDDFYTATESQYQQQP

FGFR1 = FGFR1 (UniProt P11362); experiment: as above
Jak2 = Jak2 (UniProt O60674); experiment: as above
Chain of Jak2 (O60674 whole entry, looked up): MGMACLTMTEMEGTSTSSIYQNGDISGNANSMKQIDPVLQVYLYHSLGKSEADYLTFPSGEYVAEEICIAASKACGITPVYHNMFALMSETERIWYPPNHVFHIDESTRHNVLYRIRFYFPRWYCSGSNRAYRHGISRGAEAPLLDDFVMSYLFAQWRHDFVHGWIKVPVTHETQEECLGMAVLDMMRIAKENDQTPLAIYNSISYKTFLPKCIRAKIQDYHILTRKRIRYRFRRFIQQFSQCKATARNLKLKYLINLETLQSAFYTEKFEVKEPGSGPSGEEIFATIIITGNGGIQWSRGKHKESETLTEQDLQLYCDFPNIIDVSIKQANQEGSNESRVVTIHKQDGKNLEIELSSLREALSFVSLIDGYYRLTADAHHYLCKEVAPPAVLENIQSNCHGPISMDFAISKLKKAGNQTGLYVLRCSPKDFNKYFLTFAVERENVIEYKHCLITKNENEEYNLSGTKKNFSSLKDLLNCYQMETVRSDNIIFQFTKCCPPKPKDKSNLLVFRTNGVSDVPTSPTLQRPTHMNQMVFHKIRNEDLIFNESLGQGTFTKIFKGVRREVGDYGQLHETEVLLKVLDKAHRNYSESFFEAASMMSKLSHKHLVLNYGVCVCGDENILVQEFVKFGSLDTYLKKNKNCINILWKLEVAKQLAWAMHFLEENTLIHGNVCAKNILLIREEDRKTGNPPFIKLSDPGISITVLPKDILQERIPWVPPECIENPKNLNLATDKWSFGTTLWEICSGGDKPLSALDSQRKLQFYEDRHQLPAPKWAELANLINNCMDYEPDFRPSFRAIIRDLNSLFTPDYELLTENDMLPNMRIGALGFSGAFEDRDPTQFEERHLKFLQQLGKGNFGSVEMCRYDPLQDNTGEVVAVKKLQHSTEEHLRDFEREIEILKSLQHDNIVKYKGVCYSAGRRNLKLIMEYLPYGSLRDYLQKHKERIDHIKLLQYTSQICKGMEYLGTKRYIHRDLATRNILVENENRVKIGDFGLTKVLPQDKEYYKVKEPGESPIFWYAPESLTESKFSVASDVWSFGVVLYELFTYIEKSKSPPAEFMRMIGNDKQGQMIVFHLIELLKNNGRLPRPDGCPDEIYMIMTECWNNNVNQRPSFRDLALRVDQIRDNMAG

Fyn = Fyn (UniProt P06241); experiment: as above
Chain of Fyn (P06241 whole entry, looked up): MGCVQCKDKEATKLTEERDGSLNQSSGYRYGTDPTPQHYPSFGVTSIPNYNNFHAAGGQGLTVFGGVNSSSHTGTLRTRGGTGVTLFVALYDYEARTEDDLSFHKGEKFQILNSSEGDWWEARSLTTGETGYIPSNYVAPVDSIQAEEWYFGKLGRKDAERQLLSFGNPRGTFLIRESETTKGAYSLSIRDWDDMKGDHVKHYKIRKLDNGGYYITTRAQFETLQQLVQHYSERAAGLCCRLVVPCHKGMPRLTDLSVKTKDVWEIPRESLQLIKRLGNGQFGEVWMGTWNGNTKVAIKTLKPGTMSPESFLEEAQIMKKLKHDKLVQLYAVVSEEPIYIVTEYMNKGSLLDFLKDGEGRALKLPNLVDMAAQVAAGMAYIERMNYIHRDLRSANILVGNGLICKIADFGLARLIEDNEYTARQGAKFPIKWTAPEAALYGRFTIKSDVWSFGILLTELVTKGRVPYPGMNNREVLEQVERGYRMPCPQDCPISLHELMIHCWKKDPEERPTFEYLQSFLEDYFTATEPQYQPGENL

MERTK = MERTK (UniProt Q12866); experiment: as above
c-Abl (mouse) = experiment: as above
EPHB1 = EPHB1 (UniProt P54762); experiment: as above
Fes = Fes (UniProt P07332); experiment: as above
Chain of Fes (P07332 whole entry, looked up): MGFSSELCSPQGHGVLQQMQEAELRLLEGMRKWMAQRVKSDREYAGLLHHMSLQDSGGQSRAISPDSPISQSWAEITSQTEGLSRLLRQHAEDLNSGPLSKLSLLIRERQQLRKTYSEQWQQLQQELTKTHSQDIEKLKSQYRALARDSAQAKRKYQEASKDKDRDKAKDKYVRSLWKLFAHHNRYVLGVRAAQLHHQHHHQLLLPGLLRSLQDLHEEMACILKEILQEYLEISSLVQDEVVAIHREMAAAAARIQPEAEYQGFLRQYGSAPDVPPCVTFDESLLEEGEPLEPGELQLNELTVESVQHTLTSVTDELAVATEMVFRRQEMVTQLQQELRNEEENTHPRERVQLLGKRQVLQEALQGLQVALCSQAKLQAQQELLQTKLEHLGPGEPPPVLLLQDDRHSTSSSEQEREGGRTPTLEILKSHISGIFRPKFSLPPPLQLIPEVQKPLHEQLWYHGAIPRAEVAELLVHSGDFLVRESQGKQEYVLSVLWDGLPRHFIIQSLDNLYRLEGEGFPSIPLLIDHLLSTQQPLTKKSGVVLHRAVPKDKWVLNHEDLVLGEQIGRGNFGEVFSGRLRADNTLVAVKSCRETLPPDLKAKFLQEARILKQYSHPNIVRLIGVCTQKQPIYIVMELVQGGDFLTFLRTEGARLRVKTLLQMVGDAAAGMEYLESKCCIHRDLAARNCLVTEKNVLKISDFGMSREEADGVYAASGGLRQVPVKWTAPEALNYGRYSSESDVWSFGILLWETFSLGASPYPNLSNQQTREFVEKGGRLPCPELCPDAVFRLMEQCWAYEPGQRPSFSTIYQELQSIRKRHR

FGFR3 = FGFR3 (UniProt P22607); experiment: as above
Chain of FGFR3 (P22607 whole entry, looked up): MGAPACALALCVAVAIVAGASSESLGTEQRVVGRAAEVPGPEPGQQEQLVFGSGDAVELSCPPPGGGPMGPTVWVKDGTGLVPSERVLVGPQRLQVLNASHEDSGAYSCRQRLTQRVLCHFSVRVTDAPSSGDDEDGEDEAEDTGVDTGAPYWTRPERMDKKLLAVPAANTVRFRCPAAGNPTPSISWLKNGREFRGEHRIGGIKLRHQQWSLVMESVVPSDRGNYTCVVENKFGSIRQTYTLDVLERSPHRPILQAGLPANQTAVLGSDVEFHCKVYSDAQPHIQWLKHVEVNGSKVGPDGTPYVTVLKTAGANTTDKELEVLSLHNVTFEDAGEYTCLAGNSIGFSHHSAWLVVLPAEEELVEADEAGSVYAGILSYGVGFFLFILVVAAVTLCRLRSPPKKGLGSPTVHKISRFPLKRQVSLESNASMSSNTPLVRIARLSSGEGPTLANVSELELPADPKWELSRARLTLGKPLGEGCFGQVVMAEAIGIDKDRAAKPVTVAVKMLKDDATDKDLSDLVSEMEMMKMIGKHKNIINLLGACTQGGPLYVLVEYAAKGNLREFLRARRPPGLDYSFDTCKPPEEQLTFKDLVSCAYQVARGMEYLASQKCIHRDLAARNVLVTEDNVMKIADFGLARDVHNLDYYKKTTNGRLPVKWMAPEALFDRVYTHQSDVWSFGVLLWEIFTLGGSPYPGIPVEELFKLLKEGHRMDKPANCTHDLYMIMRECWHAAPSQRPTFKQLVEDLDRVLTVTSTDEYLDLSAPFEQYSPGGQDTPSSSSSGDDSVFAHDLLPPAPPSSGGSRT

SHP2-C SH2 = experiment: SH2 binding enrichment of the phosphorylated peptide, bacterial display (enrichment ratio); higher = better substrate or ligand; peptides without Tyr show the background
c-Src SH2 = experiment: as above
Grb2 SH2 = Grb2 SH2 (UniProt P62993); experiment: as above
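Wherever SH2 binding enrichment of the phosphorylated peptide, bacterial display is given: peptide library displayed on the E. coli surface as eCPX fusions, selected cells deep-sequenced, score is each peptide's frequency after selection divided by its frequency in the input.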
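Wherever phosphorylation enrichment, bacterial display is given: 11-residue human phosphosite peptides and single-mutation variants displayed on the E. coli surface, counted by deep sequencing, each peptide's frequency after selection divided by its frequency in the unselected input library; frequency after pTyr selection over input frequency; kinase dosed for 20-30% of maximal phosphorylation in three min.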

Chain of EPHB2 (P29323 whole entry, looked up): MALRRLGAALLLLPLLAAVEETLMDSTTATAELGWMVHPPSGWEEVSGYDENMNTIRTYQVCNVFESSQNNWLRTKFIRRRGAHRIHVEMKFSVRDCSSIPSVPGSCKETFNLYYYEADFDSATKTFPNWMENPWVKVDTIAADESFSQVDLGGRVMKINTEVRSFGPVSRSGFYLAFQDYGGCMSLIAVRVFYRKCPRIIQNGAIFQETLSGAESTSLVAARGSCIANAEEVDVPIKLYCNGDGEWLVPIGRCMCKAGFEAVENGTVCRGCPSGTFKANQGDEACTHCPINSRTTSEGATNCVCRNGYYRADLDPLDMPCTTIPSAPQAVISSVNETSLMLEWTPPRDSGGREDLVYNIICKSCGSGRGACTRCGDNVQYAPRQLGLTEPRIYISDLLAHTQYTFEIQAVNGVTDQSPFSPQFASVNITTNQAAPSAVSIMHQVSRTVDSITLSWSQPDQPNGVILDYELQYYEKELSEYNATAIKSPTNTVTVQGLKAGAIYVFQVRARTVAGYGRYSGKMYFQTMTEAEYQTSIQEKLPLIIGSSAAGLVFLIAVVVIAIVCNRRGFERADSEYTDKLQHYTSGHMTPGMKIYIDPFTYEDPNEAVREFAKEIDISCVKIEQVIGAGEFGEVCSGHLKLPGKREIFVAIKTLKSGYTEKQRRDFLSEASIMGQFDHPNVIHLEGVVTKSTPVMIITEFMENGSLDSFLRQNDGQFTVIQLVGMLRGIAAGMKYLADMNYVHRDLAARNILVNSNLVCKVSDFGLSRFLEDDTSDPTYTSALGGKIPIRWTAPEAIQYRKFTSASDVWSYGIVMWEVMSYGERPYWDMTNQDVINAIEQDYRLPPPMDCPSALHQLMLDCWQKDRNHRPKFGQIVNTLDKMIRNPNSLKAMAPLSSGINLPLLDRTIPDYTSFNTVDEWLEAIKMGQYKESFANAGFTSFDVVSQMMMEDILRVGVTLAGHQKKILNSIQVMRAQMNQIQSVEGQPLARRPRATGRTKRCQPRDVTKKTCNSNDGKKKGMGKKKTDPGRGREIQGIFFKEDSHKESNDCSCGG

Sequence | SH2 binding enrichment (SHP2-C SH2) | SH2 binding enrichment (c-Src SH2) | SH2 binding enrichment (Grb2 SH2) | phosphorylation enrichment (Fer (mouse)) | phosphorylation enrichment (EPHB2) | phosphorylation enrichment (AncSZ) | phosphorylation enrichment (c-Src) | phosphorylation enrichment (Hck) | phosphorylation enrichment (FGFR1) | phosphorylation enrichment (Jak2) | phosphorylation enrichment (Fyn) | phosphorylation enrichment (MERTK) | phosphorylation enrichment (c-Abl (mouse)) | phosphorylation enrichment (EPHB1) | phosphorylation enrichment (Fes) | phosphorylation enrichment (FGFR3)
YADGVYLALEE [DUOX2_Y70_Q71L] | 0.679 | 0.869 | 0.83 | 0.531 | 1.28 | 1.66 | 2.97 | 1.59 | 1.12 | 1.39 | 2.28 | 1.13 | 0.899 | 1.82 | 1.31 | 1.18
YENGEYIIRQG [PRKG1_Y247] | 1.22 | 9.41 | 37.5 | 0.418 | 0.555 | 1.11 | 0.542 | 0.589 | 0.432 | 0.913 | 0.453 | 0.386 | 0.66 | 0.552 | 1.04 | 0.611
YGAHNYHPLPV [OAT_Y55] | 0.827 | 1.01 | 0.866 | 1.06 | 1.53 | 0.61 | 0.632 | 1.28 | 9.73 | 0.642 | 0.599 | 2.37 | 0.675 | 1.24 | 0.728 | 5.68
YGPPQYNMQYS [ERBB2IP_Y977_I979M] | 0.661 | 0.434 | 0.849 | 0.499 | 0.426 | 0.794 | 0.499 | 0.746 | 0.442 | 0.496 | 0.547 | 0.478 | 0.481 | 0.472 | 0.577 | 0.448
YLQEIHNSNNQ [FGG_Y140_Y140H] | 0.871 | 0.578 | 0.802 | 0.349 | 0.431 | 0.618 | 0.414 | 0.432 | 0.404 | 0.563 | 0.431 | 0.484 | 0.445 | 0.427 | 0.63 | 0.63
YQLPYYNTVPS [BMPR1A_Y458_M460T] | 1.1 | 8.81 | 9.88 | 2.1 | 0.799 | 2 | 3.46 | 1.46 | 5.46 | 4.98 | 0.92 | 5.81 | 2.34 | 0.642 | 0.684 | 3.69
YRGYSYDDIPD [TMEM230_Y112] | 0.893 | 13.6 | 1.15 | 0.439 | 0.485 | 0.973 | 0.463 | 0.51 | 0.531 | 0.973 | 0.442 | 0.393 | 0.762 | 0.483 | 0.964 | 0.662
YSSLGYPPPEG [ZSWIM4_Y87] | 16.1 | 3.02 | 1.04 | 0.67 | 0.508 | 0.741 | 1.22 | 1.66 | 1.06 | 0.568 | 2.36 | 7.49 | 0.66 | 0.511 | 0.793 | 0.821

More lines, main results first:

SH2 binding enrichment (SHP2-C SH2) | SH2 binding enrichment (c-Src SH2) | SH2 binding enrichment (Grb2 SH2) | Sequence | phosphorylation enrichment (Fer (mouse)) | phosphorylation enrichment (EPHB2) | phosphorylation enrichment (AncSZ) | phosphorylation enrichment (c-Src) | phosphorylation enrichment (Hck) | phosphorylation enrichment (FGFR1) | phosphorylation enrichment (Jak2) | phosphorylation enrichment (Fyn) | phosphorylation enrichment (MERTK) | phosphorylation enrichment (c-Abl (mouse)) | phosphorylation enrichment (EPHB1) | phosphorylation enrichment (Fes) | phosphorylation enrichment (FGFR3)
0.75 | 1.48 | 0.726 | YEEDSYVERSQ [RET_Y905_K907E] | 0.572 | 0.722 | 1.27 | 0.41 | 0.498 | 0.558 | 1.06 | 0.519 | 0.504 | 0.668 | 0.667 | 1.31 | 0.961
0.917 | 0.514 | 0.48 | YIRRDYEACKA [BBS4_Y48_K46R] | 0.426 | 0.685 | 0.765 | 0.706 | 0.509 | 0.633 | 0.75 | 0.572 | 0.435 | 0.64 | 0.897 | 0.807 | 0.578
1.43 | 0.98 | 1.27 | YPQARYHWLVL [APTX_Y214_K211Q] | 0.612 | 0.586 | 0.937 | 0.411 | 0.531 | 1.96 | 0.98 | 0.449 | 1.05 | 0.744 | 0.72 | 1.14 | 1.48
